Laboratory results taken from paper PMC8136771, “The human tRNA-guanine transglycosylase displays promiscuous nucleobase preference but strict tRNA specificity”.

Target: His-hQTRT1 (catalytic subunit of human TGT);StrepII-hQTRT2 (noncatalytic subunit) (human;human, UniProt Q9BXR0;Q9H974 1-403;1-415, |)
Assay: denaturing EMSA of covalent intermediate; 9-deazaguanine; RBT buffer: 50 mM Tris-HCl pH 7.5, 20 mM NaCl, 5 mM MgCl2, 2 mM DTT, 37 C, 1-1.5 h, with 9-deazaguanine (25-50 uM); capture-release with poly(U) and ArgSL competitors, urea and guanidine washes
Details: protein: recombinant;recombinant; tags: N-terminal His;N-terminal StrepII-SUMO; copies: 1;1; hairpin

Chain of His-hQTRT1 (catalytic subunit of human TGT);StrepII-hQTRT2 (noncatalytic subunit) (Q9BXR0 whole entry, chain 1 of 2): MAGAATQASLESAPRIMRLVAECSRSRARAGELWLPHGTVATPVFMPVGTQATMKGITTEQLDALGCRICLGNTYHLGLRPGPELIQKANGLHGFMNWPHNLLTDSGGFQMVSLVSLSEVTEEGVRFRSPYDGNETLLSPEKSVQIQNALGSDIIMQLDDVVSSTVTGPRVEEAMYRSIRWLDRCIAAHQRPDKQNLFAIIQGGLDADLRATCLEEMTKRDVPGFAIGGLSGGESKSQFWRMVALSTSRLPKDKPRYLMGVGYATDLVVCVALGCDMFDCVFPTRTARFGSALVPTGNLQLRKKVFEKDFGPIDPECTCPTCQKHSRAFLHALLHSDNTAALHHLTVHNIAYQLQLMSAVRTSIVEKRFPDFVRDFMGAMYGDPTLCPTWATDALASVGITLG
Chain of His-hQTRT1 (catalytic subunit of human TGT);StrepII-hQTRT2 (noncatalytic subunit) (Q9H974 whole entry, chain 2 of 2): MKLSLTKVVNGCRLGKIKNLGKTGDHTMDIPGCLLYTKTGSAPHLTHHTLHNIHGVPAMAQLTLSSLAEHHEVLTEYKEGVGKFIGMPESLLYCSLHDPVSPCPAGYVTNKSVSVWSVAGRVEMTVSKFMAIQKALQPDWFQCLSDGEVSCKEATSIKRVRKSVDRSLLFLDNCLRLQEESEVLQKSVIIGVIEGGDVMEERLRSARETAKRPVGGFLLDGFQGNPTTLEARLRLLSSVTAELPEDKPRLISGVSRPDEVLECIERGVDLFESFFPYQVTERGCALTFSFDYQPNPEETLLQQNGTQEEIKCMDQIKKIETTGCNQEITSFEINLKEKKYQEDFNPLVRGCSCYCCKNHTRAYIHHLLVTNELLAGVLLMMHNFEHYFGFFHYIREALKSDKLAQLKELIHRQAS

Binder | binding result
CCCCGCCUGUCACGCGGGA (structured_RNA) [Aspartyl anticodon stem loop (AspSL)] | binds
ACUGGCCUCCUAAGCCAGG (structured_RNA) [Arginyl anticodon stem loop (ArgSL)] | no binding
